Data: article PMC5507604, “Structure of the Neisseria Adhesin Complex Protein (ACP) and its role as a novel lysozyme inhibitor” (PLoS Pathogens, 2017)

Columns and labels:
[1] = molecular target: hen egg-white lysozyme (Hewl) (hen (chicken)) (UniProt P00698)
[2] = molecular target: human lysozyme (HL) (human) (UniProt P61626)
human lysozyme (HL) = molecular target: T1, human lysozyme (HL) (human, UniProt P61626 19-148, NT-647-NHS fluorescent dye (in the MST experiment only)); assay: MST; NT-647-labelled rHL (8.3 nM) constant, 16 two-fold serial dilutions of 2.5 mM rNm-ACPI mixed 1:1; 50 mM Tris pH 7.4, 150 mM NaCl, 10 mM MgCl2, 0.05% (v/v) Tween-20; 20% and 40% MST power, LED 20%; triplicate; settings: both partners purified
T1 construct: human C-type lysozyme; MST used labelled recombinant HL; also called rHL; recombinant HL; source: bought: Sigma-Aldrich (recombinant HL, MST)
T1 sequence (looked up): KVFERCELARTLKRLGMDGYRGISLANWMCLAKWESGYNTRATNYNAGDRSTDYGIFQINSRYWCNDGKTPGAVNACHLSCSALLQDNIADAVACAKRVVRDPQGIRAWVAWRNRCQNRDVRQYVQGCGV

hen egg-white lysozyme (Hewl) (hen (chicken)), sequence (P00698 19-147): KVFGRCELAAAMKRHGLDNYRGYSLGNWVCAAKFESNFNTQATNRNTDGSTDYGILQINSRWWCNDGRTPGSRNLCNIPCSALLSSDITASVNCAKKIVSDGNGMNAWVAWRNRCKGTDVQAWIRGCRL

Nm-ACPI triple mutant Asn79Ala/Tyr84Ala/Gly95Ala (natural protein)
inhibition of Hewl (EnzChek assay, initial rate period) compared with wild-type Nm-ACPI (% reduced activity) [1]: 39

recombinant Neisseria gonorrhoeae Adhesin Complex Protein (rNg-ACP) (natural protein)
protection of M. lysodeikticus cells (1 mg/ml) against lysis by HL (2 μg/ml), OD 595 nm over 2 h and at 24 h, rNg-ACP 0-0.5 μg/ml; ~30–60% protection at 0.1 μg/ml, not protective below 0.1 μg/ml [2]: 80 to 100 % protection

B1: recombinant Neisseria meningitidis Adhesin Complex Protein Type I (rNm-ACPI) (natural protein)
chain: AGTDNPTVAKKTVSYVCQQGKKVKVTYGFNKQGLTTYASAVINGKRVQMPVNLDKSDNVETFYGKEGGYVLGTGVMDGKSYRKQPIMITAPDNQIVFKDCSPR
notes: Adhesin Complex Protein (ACP) Type I, encoded by Allele 1, N. meningitidis serogroup B strain MC58 (NMB2095/NEIS2075); mature polypeptide of 103 residues (amino acids 22-124), mass 12,306 Da with the tag; disulphide bond Cys38-Cys121; Cloned between NdeI and XhoI of pET22b(+); The same construct, 15N-labelled, was used for NMR; also called NMB2095; NEIS2075; source: E. coli BL21 (DE3) pLysS, …
Kd (human lysozyme (HL)): 11 µM
